# Data from patent US8865222B2, “Beta-casein assemblies for enrichment of food and beverages and methods of preparation thereof” (Technion Research and Development Foundation Ltd., priority 2008, dated 2014).
# Several values for one entry are separate records, joined by “and”; a condition that tells them apart may be missing. Equal values may be shown once.
# B1: beta-casein: lyophilized bovine beta-casein (~24 kDa milk protein) self-assembled into nano-sized micelles at low or neutral pH (protein, UniProt P02666 16-224, looked up)
# Beta-casein: RELEELNVPGEIVESLSSSEESITRINKKIEKFQSEEQQQTEDELQDKIHPFAQTQSLVYPFPGPIPNSLPQNIPPLTQTPVVVPPFLQPEVMGVSKVKEAMAPKHKEMPFPKYPVEPFTESQSLTLTDVENLHLPLPLLQSWMHQPHQPLPPTVMFPPQSVLSLSQSKVLPVPQKAVPYPQRDMPIQAFLLYQEPVLGPVRGPFPIIV
# Key:
# [1] = depending on temperature, pH, solvent composition and ionic strength (Portnaya 2006); cited from earlier work
# [2] = Turbidity (solution absorbance at 600 nm); format: physicochemical; conditions: pH 2.6, empty assemblies, up to at least 2 wt %
# [3] = Small angle X-ray scattering (SAXS) of beta-casein micellar solutions; format: physicochemical; conditions: for aggregation number: pH 6.7, 0.05M NaCl
# Experimental: Small Angle X-ray Scattering (SAXS): The small angle x-ray scattering equipment consisted of a SAXSess camera (Anton-Paar, Graz, Austria) connected to an x-ray generator (Philips, PW1730/10) operating at 40 kV and 50 mA with a sealed-tube Cu anode. A Göbel mirror was used to convert the divergent polychromatic x-ray beam into a focused line-shaped beam of Cu Kα radiation (λ=0.154 nm). The 2D scattering pattern was recorded by a PI-SCX fused fiber optic taper CCD camera from Princeton Instruments, which is a division of Roper Scientific, Inc. (Trenton, N.J., USA). The used CCD detector features a 2084×2084 array with 24×24 μm pixel size (chip size: 50×50 mm). The CCD was operated at −30° C. with 10° C. water-assisted cooling to reduce the thermally generated charge. Cosmic ray correction and background subtraction were performed on the 2D image before further data processing. The 2D image was integrated into the one-dimensional scattering function within a band of 10 mm. The measurement time was 30 min for each scattering curve (6 images of 5 minutes were taken to assist the cosmic ray correction).
# Determination of the Beta-Casein Assemblies Molecular Weights.
# The molecular weight of the scattering aggregates were calculated according to Eq. 1:
# [formula] where M is the molecular weight, dΣ(0)/dΩ (cm^−1) the forward scattering intensity at q=0, c (g/cm^3) the beta-casein concentration, NA the Avogadro number, and ΔρM (cm/g) the scattering length difference per mass, given by: ΔρM=Δρ v (2)
# The scattering length difference Δρ (cm^−2) was calculated using the known chemical composition of the protein and the solvent, and v (cm^3/g), the specific volume of the protein in the solution that was calculated via density measurement of the solvent and the solution. The micelle aggregation number was then calculated by dividing the molecular weight of the micelles determined with Eq. 1, by the molecular weight of a single protein molecule.
# For a particle of arbitrary shape with a scattering density difference of Δρ(r), the pair distance distribution function p(r) (PDDF) is given by: p(r)=r^2Δ ρ^2(r) (3) where Δ ρ^2(r) is the convolution square of Δρ(r) averaged for all directions in space. The PDDF is related to the scattered intensity I(q) by a Fourier transformation, and it enables the determination of the overall shape and size of the scattering objects.
# [formula] where q is the magnitude of the scattering vector q, defined as
# [formula] λ is the wavelength of the incident radiation and θ is the angle between the scattered and incident beam. The function ƒ(r)=p(r)/r (6) is useful to identify flat plate-like particles, although it has no direct physical meaning. For lamellae, this function starts with a linearly increasing part and becomes almost flat when r is equal to the thickness of the lamella. For flat particles with a finite base area, the outer part decreases linearly because of boundary losses. The thickness of the lamella can then be read from the transition point. […] The standard error of the analytical ultracentrifugation data is 5%, and that of the Rg is 4%. The analysis supports the statistical significance and validity of the results.
# • Characterization of the beta-casein micelles by SAXS: We have applied SAXS measurements to determine the shape and dimensions of the micelles at low pH and at neutral pH, more precisely, and to evaluate the micelle molecular weight (i.e., the aggregation number). The scattering curves of 20 mg/mL beta-casein in lactic acid solution (pH 2.6, IS 0.0022) at different temperatures are shown in FIG. 3a. […] Consequently, the calculated Pair Distance Distribution Functions (PDDF), are also similar (FIG. 3b). The maximum micelle dimension is approximately 25 nm at all temperatures. The area under the PDDF curve, which is proportional to the weight of one particle, is almost constant. To calculate the aggregation number, the density of the solvent and the solution was measured at various temperatures (Table 2). […]
molecule,measurement,setting,value
B1,critical micelle concentration (CMC),[1],0.05-0.2%
same,turbidity,[2],does not vary significantly
same,maximum micelle dimension,"[3]; 20 mg/mL, pH 2.6, IS 0.0022, all temperatures 4-40 °C",approximately 25 nm
same,aggregation number,"[3]; 20 mg/mL, 1 °C",7
same,aggregation number,"[3]; 20 mg/mL, 60 °C",210
same,Nagg,"[3]; pH 2.6, 4 °C, 2 wt % beta-casein, SAXS",8
same,Nagg,"[3]; pH 2.6, 16 °C, SAXS",10
same,aggregation state,"[3]; pH 2.6, 25 °C, 0.1 wt %",monomers
same,aggregation state,"[3]; pH 2.6, 25 °C, 0.25 wt %",dimers
same,CMC,"[3]; pH 2.6, 25 °C, SAXS",0.1-0.2 wt %
same,Nagg,"[3]; pH 2.6, 25 °C, SAXS",11
same,Nagg,"[3]; pH 2.6, 40 °C, SAXS",9
same,thickness of the particles,"[3]; pH 2.6, all temperatures, from f(r) transition point",~3.5 nm
same,Micelle Dimensions,"[3]; pH 2.6, as a function of temperature 4-40 °C",Constant
same,typical sizes of beta-casein micelles,"[3]; pH 7.0, ionic strength 0.1, depending on protein concentration",13-15 nm and 22-25 nm
